The results in this text go back to patent US20210315992A1, “ADJUVANT EFFECT OF THE TLR1/2 AGONIST DIPROVOCIM SYNERGIZES WITH CHECKPOINT-INHIBITING ANTIBODIES TO ELIMINATE DISEASE” (The Board of Regents of the University of Texas System, priority 2018, published 2021).

One test deals with OT-I CD8 T cells. The test can be described thus: Cross-priming of CD8 T cells (CD69 on OT-I CD8 T cells co-cultured with DCs of immunized mice). The test is classed as in vivo, mouse. Conditions: DCs 24 hours after i.m. immunization, 24 hours co-culture. The protocol: C57BL/6J male mice were injected i.m. with 100 μg OVA mixed with vehicle or with 10 mg/kg Diprovocim (n=4 mice per treatment). 24 hours later, DCs from draining lymph nodes and spleen were purified by Mouse Pan Dendritic Cell Isolation Kit (Miltenyi Biotech). CD8 T cells from OT-I transgenic mice were purified by Mouse CD8+ T Cell Isolation Kit (Miltenyi Biotech). 3×10^5 DCs were co-cultured with 3×10^5 OT-I CD8 T cells in RPMI medium containing 10% vol/vol FBS and 1% vol/vol penicillin and streptomycin for 24 hours. Then, cells were collected and stained with anti-mouse CD3-FITC, anti-mouse CD8-BV510, and anti-mouse CD69-PE-CF594 (BioLegend) for 45 minutes. Then, the cells were washed twice with PBS. Stained cells were analyzed with an LSRII instrument and the flow cytometry data were analyzed using FlowJo software.

Test [1] concerns OVA peptide-pulsed target cells. The test can be described thus: In vivo CTL killing assay. Also noted: species or system mouse. Particulars: i.m. immunization, 100 μg OVA, Diprovocim 10 mg/kg; target cells i.v. day 7, read two days later.
Test [2] has as its system B16-OVA melanoma. The test can be described thus: B16-OVA melanoma, pre-tumor treatment (immunization on day of tumor inoculation). The test is classed as in vivo, mouse. The protocol:
FIG. 4A through FIG. 4J illustrate inhibition of B16-OVA tumor growth by pre- or post-tumor treatment with Diprovocim-adjuvanted tumor vaccination and checkpoint blockade. FIG. 4A provides a schematic of pre- and post-tumor treatment protocols. C57BL/6J mice (n=8 mice per treatment) were injected s.c. with 2×10^5 B16-OVA melanoma cells on day 0. For pre-tumor treatment, mice were immunized i.m. with OVA (100 μg) mixed with vehicle or Diprovocim (10 mg/kg) or alum (2 mg/kg) on the same day prior to tumor injection. Mice received a booster immunization seven days later in which anti-PD-L1 (200 μg) was administered on days 3, 6 and 9 after tumor inoculation by i.p. injection. For post-tumor treatment, initial immunization was on day 3 after tumor inoculation, with a booster seven days later. Anti-PD-L1 (200 μg) was administered on days 3, 6, 9, 12, and 15 after tumor inoculation by i.p. injection. FIG. 4B through FIG. 4F illustrate pre-tumor treatment results. Tumor volume (FIG. 4B and FIG. 4D) and percent mouse survival (survivors/total mice) (FIG. 4C and FIG. 4E). […] FIG. 4G through FIG. 4J illustrate a comparison of pre-tumor (FIG. 4G and FIG. 4H) vs. post-tumor treatment (FIG. 4I and FIG. 4J). Tumor volume (FIG. 4G and FIG. 4I) and percent mouse survival (survivors/total mice) (FIG. 4H and FIG. 4J) are shown. P values for tumor volume analysis apply to the final time point as indicated in graphs and were calculated by Student's t test. P values for survival analysis were calculated by Kaplan-Meier analysis. All results are representative of two independent studies.
C57BL/6J mice (n=8) were injected s.c. with 2×10^5 B16-OVA melanoma cells on day 0. Anti-PD-L1 (200 μg) or mouse IgG2a isotype control antibody was administered on days 3, 6 and 9 after tumor inoculation by i.p. injection. FIG. 8A is a graph of tumor volume versus time and FIG. 8B is a graph showing percent mouse survival (survivors/total mice) versus time. The control values in both plots are shown above those for the anti-PD-L1 values where the two values diverge. […] Results are representative of two independent studies.
B16-OVA cells (B16F10 melanoma cells stably expressing chicken ovalbumin) were grown in DMEM containing 10% vol/vol FBS. A total of 2×10^5 B16-OVA cells in 100 μL PBS were injected s.c. into the right flank of 8-12 week old male C57BL/6J mice to establish tumors (n=8 mice per group). For pretreatment, 10 mg/kg Diprovocim-1 or 2 mg/kg alum with or without OVA (100 μg) was injected i.m. into mice on the same day as tumor inoculation (day 0). Mice received a booster shot seven days after the first immunization. On day 3, 6 and 9, some groups were injected i.p. with 200 μg checkpoint inhibitor (anti-mPD-L1, BioXcell) in 100 μl saline.
Tumors were measured with a digital caliper (Fisher) and the tumor sizes were calculated using the following formula: volume=0.5×length×width^2. Mice were sacrificed when the tumor length or width reached 2 cm.

The test system of test [3] is B16-OVA melanoma. The test can be described thus: B16-OVA melanoma, post-tumor treatment (immunization day 3 after tumor inoculation). The test is classed as in vivo, mouse. Conditions: immunization three days after tumor inoculation, plus anti-PD-L1.
Protocol: C57BL/6J mice (n=8 mice per treatment) were injected s.c. with 2×10^5 B16-OVA melanoma cells on day 0. For pre-tumor treatment, mice were immunized i.m. with OVA (100 μg) mixed with vehicle or Diprovocim (10 mg/kg) or alum (2 mg/kg) on the same day prior to tumor injection. Mice received a booster immunization seven days later in which anti-PD-L1 (200 μg) was administered on days 3, 6 and 9 after tumor inoculation by i.p. injection. For post-tumor treatment, initial immunization was on day 3 after tumor inoculation, with a booster seven days later. Anti-PD-L1 (200 μg) was administered on days 3, 6, 9, 12, and 15 after tumor inoculation by i.p. injection. […] P values for tumor volume analysis apply to the final time point as indicated in graphs and were calculated by Student's t test. P values for survival analysis were calculated by Kaplan-Meier analysis. All results are representative of two independent studies.
For post-treatment, 10 mg/kg Diprovocim-1 or 2 mg/kg Alum with OVA (100 μg) was injected i.m. into mice on day 3 after tumor inoculation. Mice received a booster shot seven days after the first immunization. On day 3, 6, 9, 12 and 15 after tumor inoculation, mice were also injected i.p. with 200 μg anti-mPD-L1 in 100 μl saline.
Tumors were measured with a digital caliper (Fisher) and the tumor sizes were calculated using the following formula: volume=0.5×length×width^2. […]
Setting [4] is: immunization on day of tumor inoculation, plus anti-PD-L1.

B1: OVA: EndoFit ovalbumin, Invivogen; immunogen, given mixed with vehicle when without adjuvant (protein, UniProt P01012 2-386, looked up)
Ovalbumin: GSIGAASMEFCFDVFKELKVHHANENIFYCPIAIMSALAMVYLGAKDSTRTQINKVVRFDKLPGFGDSIEAQCGTSVNVHSSLRDILNQITKPNDVYSFSLASRLYAEERYPILPEYLQCVKELYRGGLEPINFQTAADQARELINSWVESQTNGIIRNVLQPSSVDSQTAMVLVNAIVFKGLWEKAFKDEDTQAMPFRVTEQESKPVQMMYQIGLFRVASMASEKMKILELPFASGTMSMLVLLPDEVSGLEQLESIINFEKLTEWTSSNVMEERKIKVYLPRMKMEEKYNLTSVLMAMGITDVFSSSANLSGISSAESLKISQAVHAAHAEINEAGREVVGSAEAGVDAASVSEEFRADHPFLFCIKHIATNAVLFFGRCVSP
B1: the “activation (CD69 upregulation) of OT-I CD8 T cells by DCs of immunized mice” value in the test with OT-I CD8 T cells is given as “failed to induce CD69 expression”. The target cells eliminated result in test [1] is “about 10%”. For the same molecule, in the test on B16-OVA melanoma [2] (setting [4]), the average survival time is 24 days and the “mice died by 38 days after tumor inoculation” value amounted to 100%. In the test on B16-OVA melanoma [2] (single agent, no anti-PD-L1, i.m. day 0 and booster day 7), the “tumor growth rates and survival times compared with vehicle alone” value is on record as “similar”. Moreover, the average survival time in the test on B16-OVA melanoma [3] was found to be 22 days.
